Here are results for one molecule from PMC4365997 (Journal of cell science, 2008).

This test has as its target T1, recombinant Rab11a (UniProt P62491 1-216).
T1 sequence (looked up): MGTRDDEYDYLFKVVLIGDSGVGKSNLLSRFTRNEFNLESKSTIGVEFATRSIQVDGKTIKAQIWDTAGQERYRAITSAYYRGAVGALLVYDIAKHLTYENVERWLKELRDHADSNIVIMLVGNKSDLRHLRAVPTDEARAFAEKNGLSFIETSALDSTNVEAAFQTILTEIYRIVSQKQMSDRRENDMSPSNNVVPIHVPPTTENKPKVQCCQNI
Put plainly: pull-down.

B1: Rip11/FIP5(490-652) (domain or fragment, UniProt Q9BXF6 490-652, looked up)
chain: ILGASPHHSSSGEEKAKSSWFGLREAKDPTQKPSPHPVKPLSAAPVEGSPDRKQSRSSLSIALSSGLEKLKTVTSGSIQPVTQAPQAGQMVDTKRLKDSAVLDQSAKYYHLTHDELISLLLQRERELSQRDEHVQELESYIDRLLVRIMETSPTLLQIPPGPP
Regarding B1, the binding result is on record as “binds”.
